T1: recombinant chimpanzee PSMA extracellular domain (ECD) protein (Pan troglodytes, UniProt Q04609 44-750 (human entry))
T1 construct: also called Chimp PSMA ECD; PSMG8
T1 chain: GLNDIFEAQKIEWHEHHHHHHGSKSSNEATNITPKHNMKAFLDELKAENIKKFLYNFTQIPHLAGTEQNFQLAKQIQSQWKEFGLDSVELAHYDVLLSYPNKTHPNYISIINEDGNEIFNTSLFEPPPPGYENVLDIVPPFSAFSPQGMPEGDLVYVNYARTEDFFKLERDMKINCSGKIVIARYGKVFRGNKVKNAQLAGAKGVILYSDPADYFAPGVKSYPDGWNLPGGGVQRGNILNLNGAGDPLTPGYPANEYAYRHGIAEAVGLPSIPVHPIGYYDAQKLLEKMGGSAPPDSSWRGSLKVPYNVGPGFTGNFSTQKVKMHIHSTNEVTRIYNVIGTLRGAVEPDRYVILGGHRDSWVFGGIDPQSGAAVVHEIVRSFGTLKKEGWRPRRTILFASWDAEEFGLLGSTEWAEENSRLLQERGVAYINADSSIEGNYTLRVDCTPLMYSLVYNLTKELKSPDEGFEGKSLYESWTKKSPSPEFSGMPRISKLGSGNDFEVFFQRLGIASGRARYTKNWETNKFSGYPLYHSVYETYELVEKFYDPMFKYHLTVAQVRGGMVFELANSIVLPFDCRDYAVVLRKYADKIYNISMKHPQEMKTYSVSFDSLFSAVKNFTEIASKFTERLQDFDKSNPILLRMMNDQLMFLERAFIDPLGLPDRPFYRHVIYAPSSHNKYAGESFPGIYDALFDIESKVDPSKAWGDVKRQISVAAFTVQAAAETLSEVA


Columns and labels:
[1] = molecular target: T1, recombinant chimpanzee PSMA …; test: SPR Biacore 3000, bsAb captured by anti-Fc
Protocol: Binding to recombinant Chimp PSMA by Biacore. The Affinity measurements using Surface Plasmon Resonance (SPR) were performed using a Biacore 3000 optical biosensor (Biacore-GE Healthcare). A biosensor surface was prepared by coupling anti-Human IgG Fc (Jackson ImmunoResearch Laboratory, cat #109-005-098) to the carboxymethylated dextran surface of a CM-5 chip (Biacore, cat # BR-1000-12) using the manufacturer instructions for amine-coupling chemistry. Approximately 16,000 RU (response units) of anti-Human IgG Fc antibodies were immobilized in each of four flow cells. The kinetic experiments were performed at 25° C. in running buffer (DPBS+0.03% P20+[…]). Dilutions of antigen (recombinant Chimp PSMA, concentration either from 1.2-300 nM or 3.7-900 nM in a 3-fold serial dilution) were prepared in running buffer. About 100 RU of PSMA×CD3 bispecific mAbs were captured on flow cell 2 to 4 of the sensor chip. Flow cell 1 was used as reference surface. Capture of PSMA×CD3 bispecific mAb was followed by a 3 or 5-minute injection (association phase) of antigen (recombinant Chimp PSMA) at 50 μl/min, followed by 15 or 20 minutes of buffer flow (dissociation phase). The chip surface was regenerated by two 18-second injections of 100 mM Phosphoric acid (H₃PO₄, Sigma, cat #7961) at 50 μl/min.
The collected data were processed using BIAevaluation software (Biacore). First, double reference subtraction of the data was performed by subtracting the curves generated by buffer injection from the reference-subtracted curves for analyte injections. Then kinetic analysis of the data was performed using a Langmuir 1:1 binding model with global fit. The result for each PSMA×CD3 bispecific mAb was reported in the format of kₐ (On-rate), kd (Off-rate) and KD (Equilibrium dissociation constant).

[2] = molecular target: T1, recombinant chimpanzee PSMA …; test: SPR ProteOn, bsAb captured by anti-Fc
Protocol: The interactions of PSMA×CD3 bispecific mAbs with target (recombinant Chimp, PSMA) were studied by Surface Plasmon Resonance (SPR) using a ProteOn XPR36 system (BioRad). […] Approximately 4400 RU (response units) of anti-Human IgG Fc antibodies were immobilized. The kinetic experiments were performed at 25° C. in running buffer (DPBS+0.03% P20+100 μg/ml BSA). […] The association phase was monitored for 3 minutes at 50 μL/min, then followed by 15 minutes of buffer flow (dissociation phase). The chip surface was regenerated with two 18 second pulses of 100 mM Phosphoric acid (H₃PO₄, Sigma, cat #7961) at 100 μL/min.
The collected data were processed using ProteOn Manager software. First, the data was corrected for background using inter-spots. Then, double reference subtraction of the data was performed by using the buffer injection for analyte injections. The kinetic analysis of the data was performed using a Langmuir 1:1 binding model.

| Binder | Kd [1] | koff [1] | kon [1] | Kd [2] | koff [2] | kon [2] |
| --- | --- | --- | --- | --- | --- | --- |
| PS3B19 (bispecific antibody, human IgG4 S228P, kappa, lambda, F234A L235A, IgG4 PAA; PSMA arm chains first, then CD3 arm (F405L, R409K); also called PSMB119 x CD3B219) heavy 1: not shown light 1: not shown heavy 2: EVQLVESGGGLVQPGGSLRLSCAASGFTFNTYAMNWVRQAPGKGLEWVARIRSKYNNYATYYAASVKGRFTISRDDSKNSLYLQMNSLKTEDTAVYYCARHGNFGNSYVSWFAYWGQGTLVTVSSASTKGPSVFPLAPCSRSTSESTAALGCLVKDYFPEPVTVSWNSGALTSGVHTFPAVLQSSGLYSLSSVVTVPSSSLGTKTYTCNVDHKPSNTKVDKRVESKYGPPCPPCPAPEAAGGPSVFLFPPKPKDTLMISRTPEVTCVVVDVSQEDPEVQFNWYVDGVEVHNAKTKPREEQFNSTYRVVSVLTVLHQDWLNGKEYKCKVSNKGLPSSIEKTISKAKGQPREPQVYTLPPSQEEMTKNQVSLTCLVKGFYPSDIAVEWESNGQPENNYKTTPPVLDSDGSFLLYSKLTVDKSRWQEGNVFSCSVMHEALHNHYTQKSLSLSLGK light 2: QTVVTQEPSLTVSPGGTVTLTCRSSTGAVTTSNYANWVQQKPGQAPRGLIGGTNKRAPGTPARFSGSLLGGKAALTLSGVQPEDEAEYYCALWYSNLWVFGGGTKLTVLGQPKAAPSVTLFPPSSEELQANKATLVCLISDFYPGAVTVAWKADSSPVKAGVETTTPSKQSNNKYAASSYLSLTPEQWKSHRSYSCQVTHEGSTVEKTVAPTECS | 0.0663 µM | 0.000414 s⁻¹ | 6240 M⁻¹ s⁻¹ | 0.0236 µM | 0.000298 s⁻¹ | 12600 M⁻¹ s⁻¹ |
| PS3B28 (bispecific antibody, human IgG4 S228P, kappa, lambda, F234A L235A, IgG4 PAA; PSMA arm chains first, then CD3 arm (F405L, R409K); also called PSMB128 x CD3B219) heavy 1: not shown light 1: not shown heavy 2: EVQLVESGGGLVQPGGSLRLSCAASGFTFNTYAMNWVRQAPGKGLEWVARIRSKYNNYATYYAASVKGRFTISRDDSKNSLYLQMNSLKTEDTAVYYCARHGNFGNSYVSWFAYWGQGTLVTVSSASTKGPSVFPLAPCSRSTSESTAALGCLVKDYFPEPVTVSWNSGALTSGVHTFPAVLQSSGLYSLSSVVTVPSSSLGTKTYTCNVDHKPSNTKVDKRVESKYGPPCPPCPAPEAAGGPSVFLFPPKPKDTLMISRTPEVTCVVVDVSQEDPEVQFNWYVDGVEVHNAKTKPREEQFNSTYRVVSVLTVLHQDWLNGKEYKCKVSNKGLPSSIEKTISKAKGQPREPQVYTLPPSQEEMTKNQVSLTCLVKGFYPSDIAVEWESNGQPENNYKTTPPVLDSDGSFLLYSKLTVDKSRWQEGNVFSCSVMHEALHNHYTQKSLSLSLGK light 2: QTVVTQEPSLTVSPGGTVTLTCRSSTGAVTTSNYANWVQQKPGQAPRGLIGGTNKRAPGTPARFSGSLLGGKAALTLSGVQPEDEAEYYCALWYSNLWVFGGGTKLTVLGQPKAAPSVTLFPPSSEELQANKATLVCLISDFYPGAVTVAWKADSSPVKAGVETTTPSKQSNNKYAASSYLSLTPEQWKSHRSYSCQVTHEGSTVEKTVAPTECS | 0.0308 µM | 0.00191 s⁻¹ | 62000 M⁻¹ s⁻¹ | 0.0174 µM | 0.00233 s⁻¹ | 134000 M⁻¹ s⁻¹ |
| PS3B24 (bispecific antibody, human IgG4 S228P, kappa, lambda, F234A L235A, IgG4 PAA; PSMA arm chains first, then CD3 arm (F405L, R409K); also called PSMB124 x CD3B219) heavy 1: not shown light 1: not shown heavy 2: EVQLVESGGGLVQPGGSLRLSCAASGFTFNTYAMNWVRQAPGKGLEWVARIRSKYNNYATYYAASVKGRFTISRDDSKNSLYLQMNSLKTEDTAVYYCARHGNFGNSYVSWFAYWGQGTLVTVSSASTKGPSVFPLAPCSRSTSESTAALGCLVKDYFPEPVTVSWNSGALTSGVHTFPAVLQSSGLYSLSSVVTVPSSSLGTKTYTCNVDHKPSNTKVDKRVESKYGPPCPPCPAPEAAGGPSVFLFPPKPKDTLMISRTPEVTCVVVDVSQEDPEVQFNWYVDGVEVHNAKTKPREEQFNSTYRVVSVLTVLHQDWLNGKEYKCKVSNKGLPSSIEKTISKAKGQPREPQVYTLPPSQEEMTKNQVSLTCLVKGFYPSDIAVEWESNGQPENNYKTTPPVLDSDGSFLLYSKLTVDKSRWQEGNVFSCSVMHEALHNHYTQKSLSLSLGK light 2: QTVVTQEPSLTVSPGGTVTLTCRSSTGAVTTSNYANWVQQKPGQAPRGLIGGTNKRAPGTPARFSGSLLGGKAALTLSGVQPEDEAEYYCALWYSNLWVFGGGTKLTVLGQPKAAPSVTLFPPSSEELQANKATLVCLISDFYPGAVTVAWKADSSPVKAGVETTTPSKQSNNKYAASSYLSLTPEQWKSHRSYSCQVTHEGSTVEKTVAPTECS | 0.0386 µM | 0.000907 s⁻¹ | 23500 M⁻¹ s⁻¹ | 0.0403 µM | 0.000252 s⁻¹ | 6260 M⁻¹ s⁻¹ |
| PS3B20 (bispecific antibody, human IgG4 S228P, kappa, lambda, F234A L235A, IgG4 PAA; PSMA arm chains first, then CD3 arm (F405L, R409K); also called PSMB120 x CD3B219) heavy 1: not shown light 1: not shown heavy 2: EVQLVESGGGLVQPGGSLRLSCAASGFTFNTYAMNWVRQAPGKGLEWVARIRSKYNNYATYYAASVKGRFTISRDDSKNSLYLQMNSLKTEDTAVYYCARHGNFGNSYVSWFAYWGQGTLVTVSSASTKGPSVFPLAPCSRSTSESTAALGCLVKDYFPEPVTVSWNSGALTSGVHTFPAVLQSSGLYSLSSVVTVPSSSLGTKTYTCNVDHKPSNTKVDKRVESKYGPPCPPCPAPEAAGGPSVFLFPPKPKDTLMISRTPEVTCVVVDVSQEDPEVQFNWYVDGVEVHNAKTKPREEQFNSTYRVVSVLTVLHQDWLNGKEYKCKVSNKGLPSSIEKTISKAKGQPREPQVYTLPPSQEEMTKNQVSLTCLVKGFYPSDIAVEWESNGQPENNYKTTPPVLDSDGSFLLYSKLTVDKSRWQEGNVFSCSVMHEALHNHYTQKSLSLSLGK light 2: QTVVTQEPSLTVSPGGTVTLTCRSSTGAVTTSNYANWVQQKPGQAPRGLIGGTNKRAPGTPARFSGSLLGGKAALTLSGVQPEDEAEYYCALWYSNLWVFGGGTKLTVLGQPKAAPSVTLFPPSSEELQANKATLVCLISDFYPGAVTVAWKADSSPVKAGVETTTPSKQSNNKYAASSYLSLTPEQWKSHRSYSCQVTHEGSTVEKTVAPTECS | 0.0591 µM | 0.000461 s⁻¹ | 7820 M⁻¹ s⁻¹ | 0.0214 µM | 0.000378 s⁻¹ | 17600 M⁻¹ s⁻¹ |

Source: patent publication US20200024360A1 (Janssen / Centocor, published 2020)
